Residue numbers refer to the chain shown, from its start.
B1: H1H20636D (bispecific antibody, V domains shown)
VH 1: QLQLQESGPGLVKPSETLSLTCTVSGGSISSSSYYWVWIRQPPGKGLEWIGNIYFSGSTYYNPSLKSRVTITVDTSKNQFSLKMTSVTAADTAVYYCARPFYGSRGDYYYGMDVWGQGTTVTVSS
VH 2: EIVLTQSPGTLSLSPGERATLSCRASQNVRSGYLAWYQQKPGQAPRLLIYGTSTRVTGIPDRFSGFGSGTDFTLTISRLEPEDFAVYYCQQYGNSPLFTFGGGTKVEIK
VL: not shown
notes: also called anti-IsdB x anti-C1q bispecific antibody
B2: H1H20644D (bispecific antibody, V domains shown)
VH 1: B1 VH 1
VH 2: QVQLVESGGGVVQPGRSLRLSCATSGFTFSSYGMHWVRQAPGKGLEWVALIWYDRNNEYYADSVKGRFTISRDNSKNTLYLQMNSLRAEDTAVYYCARGEWEMDYWGQGTLVTVSS
VL: not shown
notes: as for B1
B3: H1H20645D (bispecific antibody, V domains shown)
VH 1: B1 VH 1
VH 2: EVQLVQSGPEVKKPGESLKIACKASGYSFTSYWIGWVRQMPGKGLEWMGIIFPADSDTRYSPSFQGQVTISADKSITTAYLQWRSLQASDTAKYYCVRHVRWSGENWGQGTLVTVSS
VL: not shown
notes: as for B1
B4: H1H20639D (bispecific antibody, V domains shown)
VH 1: B1 VH 1
VH 2: QVQLVESGGGVVQPGRSLRLSCAASGFTFSSYGMHWVRQAPGKGLEWVTNIWYDGNNKYYTDSVKGRFTISRDNSKNTLYLQMNSLTAEDTAVYYCARDGDYYVMDVWGQGTTVTVSS
VL: not shown
notes: as for B1
B5: H1H20647D (bispecific antibody, V domains shown)
VH 1: B1 VH 1
VH 2: B4 VH 2 with T49A, N50L, N56S, Y60F, T61A, N74I, T87R, V104G
VL: not shown
notes: as for B1
B6: H1H20634D (bispecific antibody, V domains shown)
VH 1: EVQLVESGGGLVQPGRSLRLSCTTSGFTFDDYAMHWVRQVPGQGLEWVAGLSWNSDTIGYADSVKGRFTISRDNAKNSLYLQMKSLKAEDTALYYCTKDFYHSLNNWNYYYFDYWGQGTLVTVSS
VH 2: QVQLVESGGGVVQPGRSLRLSCVASGFTFSSYGFHWVRQAPGKGLEWVAVIWYDGSNEGYVDSVRGRFTISRDFSKNTLYLQMNSLRIEDTAVYYCARRGDYYIMDVWGQGTTVTVSS
VL: not shown
notes: as for B1
B7: H1H20643D (bispecific antibody, V domains shown)
VH 1: B1 VH 1
VH 2: EVQLVQSGAEVKKPGDSLKISCKGSGYSFTTYWIGWVRQMPGKGLEWMGIIFPGDSDTRYSPSFQGQVTISADKSINTAYLQWSSLKASDTAIYYCARHNRWVADYWGQGTLVTVSS
VL: not shown
notes: as for B1
B8: H1H20646D (bispecific antibody, V domains shown)
VH 1: B1 VH 1
VH 2: EVQLVQSGAEVRKPGESLKISCKGSGFSFTSYWIGWVRQMPGKGLEWMGIIFPADSDTRYSPSFQGQVTISADKSINTAYLQWRSLKVSDTAMYYCTKLQYWYFDLWGRGTLVTVSS
VL: not shown
notes: as for B1
B9: H1H20640D (bispecific antibody, V domains shown)
VH 1: B1 VH 1
VH 2: EVQLVQSGPEVKKPGESLKISCKGSGYNFLGYWIGWVRQMPEKGLEWMAFIYPGDSDFRYSPSFQGQVTISVDRSVTTAYLHWSSLKASDTGIYFCVRQTGNGMDVWGQGTTVTVSS
VL: not shown
notes: as for B1

Each binder was assayed against T1, native human complement component C1q protein purified from human serum (Quidel) (human, UniProt P02745 23-245; P02746 28-253; P02747 29-245) (assay: cell-based or functional assay).
T1 sequence (P02745 23-245 limits assumed, chain 1 of 3): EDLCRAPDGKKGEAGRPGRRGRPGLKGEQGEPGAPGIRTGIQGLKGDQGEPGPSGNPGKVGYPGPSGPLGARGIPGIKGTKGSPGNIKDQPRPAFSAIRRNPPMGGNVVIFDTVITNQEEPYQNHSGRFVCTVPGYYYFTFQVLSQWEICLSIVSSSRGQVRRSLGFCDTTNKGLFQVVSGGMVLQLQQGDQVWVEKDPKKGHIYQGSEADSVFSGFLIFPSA
T1 sequence (P02746 28-253 limits assumed, chain 2 of 3): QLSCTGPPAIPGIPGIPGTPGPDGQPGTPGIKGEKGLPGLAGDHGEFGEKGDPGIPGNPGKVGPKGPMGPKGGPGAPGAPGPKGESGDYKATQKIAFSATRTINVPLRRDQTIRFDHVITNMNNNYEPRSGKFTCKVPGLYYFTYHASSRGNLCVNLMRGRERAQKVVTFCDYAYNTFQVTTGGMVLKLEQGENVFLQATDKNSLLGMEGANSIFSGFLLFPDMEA
T1 sequence (P02747 29-245 limits assumed, chain 3 of 3): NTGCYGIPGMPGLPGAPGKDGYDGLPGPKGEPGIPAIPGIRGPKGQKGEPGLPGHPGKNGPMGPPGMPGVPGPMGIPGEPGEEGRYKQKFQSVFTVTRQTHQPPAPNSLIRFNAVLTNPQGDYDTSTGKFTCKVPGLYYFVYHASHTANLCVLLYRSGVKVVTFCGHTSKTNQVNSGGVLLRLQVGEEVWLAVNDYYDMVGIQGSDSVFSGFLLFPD

| Binder | Classical Pathway hemolysis assay % inhibition [%] |
| --- | --- |
| B1 | 0 |

Molecular target: T1, native human complement component C1q …
Assay: cell-based or functional assay
Remark: another data set of the same source

| Binder | inhibition of CDC of Daudi cells, IC50 [M] | inhibition of CDC of Daudi cells, Max % Inhibition [%] |
| --- | --- | --- |
| B2 | > 1e-07 | 88 |
| B3 | 3.4e-08 | ≥ 99 |
| B4 | > 1e-07 | 70 |
| B5 | > 1e-07 | 82 |

Molecular target: T1, native human complement component C1q …
Assay: cell-based or functional assay
Remark: another data set of the same source

| Binder | C1q deposition on S. aureus Cowan I EC50 [nM] |
| --- | --- |
| B1 | 8.54 |
| B2 | 1.12 |
| B3 | 0.298 |
| B4 | 2.06 |
| B5 | 0.587 |

Each binder was assayed against T2, IsdB expressed on the surface of S. aureus Wood 46 (Staphylococcus aureus) (assay: ELISA on plate-coated S. aureus Wood 46).
T2 construct: whole, on cells
T2 sequence (Q2FZF0 41-613): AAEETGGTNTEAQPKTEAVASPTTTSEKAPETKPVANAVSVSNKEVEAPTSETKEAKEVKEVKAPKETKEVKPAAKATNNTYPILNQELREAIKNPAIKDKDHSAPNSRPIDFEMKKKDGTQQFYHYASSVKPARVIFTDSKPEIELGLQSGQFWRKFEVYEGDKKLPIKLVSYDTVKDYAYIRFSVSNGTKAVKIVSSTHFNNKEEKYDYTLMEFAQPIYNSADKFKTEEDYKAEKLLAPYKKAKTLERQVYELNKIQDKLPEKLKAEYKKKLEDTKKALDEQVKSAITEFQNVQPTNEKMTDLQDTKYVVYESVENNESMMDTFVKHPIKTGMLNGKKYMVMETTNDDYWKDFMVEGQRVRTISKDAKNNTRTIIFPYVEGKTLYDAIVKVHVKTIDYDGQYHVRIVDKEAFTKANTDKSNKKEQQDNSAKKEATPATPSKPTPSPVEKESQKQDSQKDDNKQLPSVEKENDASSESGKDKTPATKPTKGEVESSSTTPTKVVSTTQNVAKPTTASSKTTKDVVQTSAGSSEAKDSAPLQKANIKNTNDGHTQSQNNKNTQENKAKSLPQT
Protocol: Briefly, S. aureus Wood 46 was grown in RPMI overnight, washed in PBS and adjusted to an OD₆₀₀ of 0.25. MaxiSorp 96 well microtiter plates were coated overnight with 100 μl of S. aureus culture per well. Plates were washed and blocked with 3% BSA. […] Anti-human HRP conjugated secondary antibody was added to washed plates. Luminescence reagents (SuperSignal Pico) were then added to the wells and signal was detected in a plate reader (Victor X3 plate reader, Perkin Elmer) immediately. Luminescence values were analyzed by a four-parameter logistic equation over a 7-point response curve (GraphPad Prism) to determine the binding EC₅₀, of the antibodies.

| Binder | EC50 [nM] |
| --- | --- |
| B6 | 1.04 |
| B1 | 9.52 |
| B2 | 12.6 |
| B3 | 11.9 |
| B7 | 10.1 |
| B4 | 13.3 |
| B8 | 12.9 |
| B9 | 18 |
| B5 | 7.3 |

These binders were tested against T1, native human complement component C1q … (assay: SPR Biacore, captured Ab, hC1q analyte, 25C).

| Binder | Kd [nM] | koff [s⁻¹] | kon [M⁻¹ s⁻¹] | t½ [min] |
| --- | --- | --- | --- | --- |
| B1 | 2.12 | 0.0102 | 4.81e+06 | 1.14 |
| B2 | 0.232 | 0.00624 | 2.69e+07 | 1.85 |
| B3 | 0.158 | 0.00452 | 2.86e+07 | 2.56 |
| B4 | 0.655 | 0.00612 | 9.35e+06 | 1.89 |
| B5 | 0.368 | 0.0034 | 9.25e+06 | 3.39 |

The binders below were run against T1, native human complement component C1q … (assay: SPR Biacore, captured Ab, hC1q analyte, 37C).

| Binder | Kd [nM] | koff [s⁻¹] | kon [M⁻¹ s⁻¹] | t1/2 [min] |
| --- | --- | --- | --- | --- |
| B1 | 2.73 | 0.0179 | 6.57e+06 | 0.64 |
| B2 | 0.924 | 0.0276 | 2.98e+07 | 0.42 |
| B3 | 0.88 | 0.0317 | 3.6e+07 | 0.36 |
| B4 | 0.664 | 0.00859 | 1.29e+07 | 1.34 |
| B5 | 0.439 | 0.00576 | 1.31e+07 | 2 |

What follows are binders tested against T3, Recombinant bacterial IsdB expressed with a hexahistidine tag (IsdB-6xHis; REGN2655) (Staphylococcus aureus, UniProt A6QG30 42-613) (assay: SPR Biacore, captured Ab, IsdB-6xHis analyte, 25C).
T3 sequence (A6QG30 42-613, tags left off): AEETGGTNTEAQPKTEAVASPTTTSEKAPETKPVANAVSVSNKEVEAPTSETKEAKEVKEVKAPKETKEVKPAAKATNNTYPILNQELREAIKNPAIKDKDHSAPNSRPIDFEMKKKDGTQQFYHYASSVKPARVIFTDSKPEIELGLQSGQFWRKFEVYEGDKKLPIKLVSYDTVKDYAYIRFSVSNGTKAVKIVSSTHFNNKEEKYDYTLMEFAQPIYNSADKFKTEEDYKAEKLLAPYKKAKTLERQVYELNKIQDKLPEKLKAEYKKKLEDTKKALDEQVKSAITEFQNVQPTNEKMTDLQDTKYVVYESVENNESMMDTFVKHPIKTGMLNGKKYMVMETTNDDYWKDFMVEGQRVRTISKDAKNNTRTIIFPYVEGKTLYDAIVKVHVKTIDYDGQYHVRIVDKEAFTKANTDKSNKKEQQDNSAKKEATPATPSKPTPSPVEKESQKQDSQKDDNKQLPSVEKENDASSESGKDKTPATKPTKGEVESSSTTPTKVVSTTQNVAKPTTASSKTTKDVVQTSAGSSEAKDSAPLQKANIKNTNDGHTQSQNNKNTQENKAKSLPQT

| Binder | Kd [nM] | koff [s⁻¹] | kon [M⁻¹ s⁻¹] | t½ [min] |
| --- | --- | --- | --- | --- |
| B6 | 2.65 | 0.000296 | 112000 | 39 |
| B1 | 4.98 | 0.000378 | 75800 | 30.6 |
| B2 | 11 | 0.000554 | 50300 | 20.8 |
| B3 | 9.95 | 0.000551 | 55400 | 21 |
| B7 | 9.42 | 0.000555 | 58900 | 20.8 |
| B4 | 11.3 | 0.000562 | 49800 | 20.5 |
| B8 | 9.74 | 0.000433 | 44500 | 26.7 |
| B9 | 9.36 | 0.000553 | 59100 | 20.9 |
| B5 | 12.3 | 0.000565 | 46000 | 20.4 |

These binders were tested against T3, Recombinant bacterial IsdB expressed … (assay: SPR Biacore, captured Ab, IsdB-6xHis analyte, 37C).

| Binder | Kd [nM] | koff [s⁻¹] | kon [M⁻¹ s⁻¹] | t1/2 [min] |
| --- | --- | --- | --- | --- |
| B6 | 3.81 | 0.000573 | 150000 | 20.2 |
| B1 | 17.4 | 0.00144 | 82800 | 8.04 |
| B2 | 18.2 | 0.0015 | 82500 | 7.7 |
| B3 | 19.1 | 0.00155 | 81200 | 7.43 |
| B7 | 18.5 | 0.00148 | 79900 | 7.81 |
| B4 | 18.5 | 0.00148 | 80200 | 7.81 |
| B8 | 18.5 | 0.0015 | 80700 | 7.72 |
| B9 | 17.2 | 0.00142 | 82800 | 8.13 |
| B5 | 21.5 | 0.00154 | 71500 | 7.51 |

The binders below were run against T1, native human complement component C1q … (assay: competition ELISA, 6 nM biot-hC1q, competitor plate-coated hIgM).

| Binder | % Blockade with 600 nM bispecific Ab [%] | IC50 [nM] |
| --- | --- | --- |
| B1 | 11 | – |
| B2 | 75 | 43 |
| B3 | 95 | 13 |
| B4 | 86 | 42 |
| B5 | 91 | 25 |

The binders below were run against T1, native human complement component C1q … (assay: competition ELISA, 6 nM biot-hC1q, competitor plate-coated hIgG2-k).

| Binder | % Blockade with 600 nM bispecific Ab [%] | IC50 [nM] |
| --- | --- | --- |
| B1 | 20 | – |
| B2 | 81 | 63 |
| B3 | 87 | 18 |
| B4 | 82 | 70 |
| B5 | 80 | 32 |

The binders below were run against T1, native human complement component C1q … (assay: competition ELISA, 30 pM biot-hC1q, competitor plate-coated hIgG1-k).

| Binder | % Blockade with 30 nM bispecific Ab [%] | IC50 [nM] |
| --- | --- | --- |
| B1 | -29 | – |
| B2 | 66 | 24 |
| B3 | 94 | 0.84 |
| B4 | 64 | – |
| B5 | 85 | 9 |

These binders were tested against T1, native human complement component C1q … (assay: competition ELISA, 30 pM biot-hC1q, competitor plate-coated hIgG3-k).

| Binder | % Blockade with 30 nM bispecific Ab [%] | IC50 [nM] |
| --- | --- | --- |
| B1 | -11 | – |
| B2 | 36 | – |
| B3 | 87 | 5.3 |
| B4 | 33 | – |
| B5 | 60 | – |

Source: US20210147519A1 (Regeneron, published 2021)
